± gives the uncertainty stated by the source.
test: amyloid nucleation score (Sup35N fusion, yeast selection) (log enrichment); library NNK2; higher = more nucleation; inactive = no reads after selection
Method in brief: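 Peptides of 20 random codons fused to Sup35N were expressed in psi-negative yeast, induced 24 hours with 100 μM copper sulfate, then grown 7 days at 30°C on medium lacking adenine and uracil. Input and output plasmid inserts were Illumina-sequenced. Nucleation score is the DiMSum log enrichment of output over input reads, centred on the mode score of non-aggregating sequences, excluding sequences with under 100 input reads. Random libraries had three technical output replicates.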

Substance	amyloid nucleation score
GSVFLRGTYWVLKDVCGWKE	0.391 ± 0.56
GSVTVCIMSRR	-0.729 ± 0.64
GSYCCLVKFMKFFSSLGHQF	-1.29 ± 1
GSYFGHNIHLGAVWPIIGYP	0.117 ± 0.3
GTAPSDQRTSSCR	0.989 ± 0.23
GTLMTCVGG	inactive
GTLWRFKESTMGLTGITAGT	0.987 ± 0.4
GTRNVLIHAK	-1.26 ± 1.1
GTRYILVKGTMGYDLCYFLG	2.69 ± 0.13
GTTDTCSAV	3.2 ± 0.093
GTTWLTVLALVALSEISCRM	0.384 ± 0.28
GTVGGVGMFVLLVTRSKVFV	1.3 ± 0.29
GTVGVGMS	1.11 ± 0.66
GVCLSGACAGISGGADYSGR	0.332 ± 0.22
GVDDARTTKAGNWYSVRKGQ	1.64 ± 0.41
GVDKWLDHVCFVASYLSVKV	1.22 ± 0.51
GVFALSPRKHLRCDVVAWGV	0.884 ± 0.55
GVIWVCIRCDHGGTAMRLLW	1.25 ± 0.45
GVIWWPVTLCFWLCAKYIGL	-0.552 ± 1.1
GVKST	0.422 ± 0.74
GVLDRFPDESNILGVSFSCL	-0.575 ± 0.26
GVLYLFTVTVMDKKFTM	3.5 ± 0.077

Substance	amyloid nucleation score
GVMSPHVTTFNILCVNNVLC	8.72 ± 0.07
GVNILTLWHWIYFNTTVQNN	-1.19 ± 0.38
GVPRMTSVDSYRLLLFSASR	0.19 ± 0.25
GVRMQLFGTLMSSAHQVRVG	0.69 ± 0.17
GVSLFYNWPPSAFKVRYE	-0.611 ± 1
GVSVSVYHGWLVLDRMFHNS	4.25 ± 0.12
GVWYFANFFVVMRAVGCDVG	0.484 ± 0.36
GVYKVGMVPWFIQFSDVGGR	5.73 ± 0.068
GVYLGSPSYVDLSVALFSIV	0.073 ± 0.29
GWCSYTP	0.832 ± 0.67
GWIVSLFVV	0.769 ± 0.46
GWVLTSCGANGWRK	-0.371 ± 0.63
GYDGRFIASRSVYFKARIGG	-0.056 ± 0.29
GYIYVNSGYRFTKLCMVFC	0.058 ± 0.79
GYLFGSALKSDIQYHTESMF	inactive
GYLLGSDSGDGGPFVIERIK	0.687 ± 0.38
GYLSDMINFVSYCGRLSWSV	inactive
GYMSYT	-0.863 ± 0.32
GYNQLLTQGKPGYCFRISRV	-1.29 ± 0.78
GYRNPLLLILLDRVKFSCSR	-1.19 ± 1
GYSAYESANWRLA	1.19 ± 0.44
GYSILKC	inactive

Substance	amyloid nucleation score
GYTIDWMGVLQSVVLCT	0.524 ± 0.6
HADNARRYQTTLMVGLRVVG	0.409 ± 0.49
HAFLG	0.53 ± 0.5
HAMLRTDILICCITH	9.805 ± 0.065
HCCKSVRLESIRMRCGACYL	0.007 ± 0.56
HCMYDWMNRSMGLVFDCLFL	-1.04 ± 1
HCPVSVVTRHGLTVNDVRHY	-0.062 ± 0.46
HCRSIVWSRYFLMNPLN	-0.029 ± 0.61
HCVLRSQT	2.38 ± 0.12
HCYQTDRSHIICHELLHCFV	-0.74 ± 0.49
HEMRDGNSRLMFYWGVSCNM	0.062 ± 0.45
HERLKLAGSQSWVGKLVRQG	0.917 ± 0.29
HESKYNVQVFN	-0.276 ± 0.76
HFIIYYDSYNTMVIGEFAVQ	inactive
HFKSDSSSSEMTRLVEPGGV	-0.125 ± 0.63
HFMRLYSKVLILLAEKRTAP	0.083 ± 0.76
HFNSLVSGQYMWSSGKSLVP	4.01 ± 0.061
HFNVPCNCSNCSYGTILSIT	-0.305 ± 0.8
HFRSLALISLAEKFITRIEK	-0.13 ± 0.22
HFSDVSSEVGVIHCSMLGSN	-0.107 ± 0.49
HGGGVLHIFLNIAPLVS	1.52 ± 0.28
HGLVGESVRSYQTQRQVTMA	0.544 ± 0.4

Substance	amyloid nucleation score
HGYRLSHSQPKSTSSLV	-0.083 ± 0.63
HGYSWCCFHVGS	8.926 ± 0.054
HICPFGCGYYLGEDKDAWSG	-0.749 ± 0.56
HIIPEYRVFLLLFHDDGAGF	inactive
HIRGVIVGRAPDRCI	inactive
HIRLRY	-0.101 ± 0.8
HISVISTNEFTRIRASAAHA	1.38 ± 0.67
HIVRNYFTLTSCAHTIHFAD	-0.861 ± 1
HKCTSAV	0.229 ± 0.61
HKIPLFYCSYTELGSSVERR	1.38 ± 0.15
HKLTRRKWNCLRNWKLNLHQ	-0.953 ± 0.54
HKMADSTNDSNRLEFDMFNE	-0.881 ± 0.78
HKQRSSASKSV	-0.321 ± 0.39
HKWEAKMGPISVLFRCFGLD	1.09 ± 0.14
HLEPRIPLWMPVFGVSKVRS	2.7 ± 0.12
HLFCTMHSQTLEDYIKSLVC	-0.087 ± 1
HLFNGSGGLFSLTRSFMKS	-0.228 ± 1.1
HLGKASYREFSFFKGLGY	inactive
HLHGCIAMCASSSLIAGCTE	-0.603 ± 0.78

From the supplement of paper PMC12042874
